The source of these data is the RNAGym collection of RNA variant scans (doi:10.1101/gr.219683.116).

The labels stand for the following.
B1: mRNA-splicing (parent)
chain: AGUUGCUGCUGGGAGCUCCAGCACAGUGAAAUGGACAGAAGGGCAGAGCAA

The data set covers variants of B1. The data set is described as follows: exon inclusion enrichment index; higher = more inclusion; WT1 exon 5 minigene, HEK293.
Consider AGUUCGCGCCGGGAGCUCCAGCACAGUGAAAUGGACAGAAGGGCGCAGCAA [G5C C6G U7C U10C A45G G46C], for which the “exon inclusion enrichment index” value was determined as 3.05.

AGUUGAAGGUGGGAGCUCCAGCACAGUGAAAUGGACAGAAGGGCAGAGCAA [C6A U7A C9G]: the “exon inclusion enrichment index” value worked out at 0.28. As for AGUUGACGACGGGAGCUCCAGCACAGUGAAAUGGACAGAAGGGCACCGCAA [C6A U7C C9A U10C G46C A47C], the figure is 2.51; as for AGUUUCUUUUGGGAGCGUCAGCACAGUGAAAUGGACAGAAGGGCAGAGCAA [G5U G8U C9U U17G C18U], 0.0929; as for AGUUCUUCUCGGGAGCUCCAGCACAGUGAAAUGGACAGAAGGGCAUGGCAA [G5C C6U G8C C9U U10C G46U A47G], 1.76.

Consider AGUUGAAGAGGGGAGCUCCAGCACAGUGAAAUGGACAGAAGGGCAGAGCAA [C6A U7A C9A U10G], for which the “exon inclusion enrichment index” value was 0.498. Regarding AGUUCGCCUCGGGAGCUCCAGCACAGUGAAAUGGACAGAAGGGCAGAGCAA [G5C C6G U7C G8C C9U U10C], the “exon inclusion enrichment index” value was found to be 2.8. As for AGUUCGCGCCGGGAGCUCCAGCACAGUGAGGUGGACAGAAGGGCAGAGCAA [G5C C6G U7C U10C A30G A31G], the figure is 1.71; as for AGUUACCACCGGGAGCUCCAGCACAGUCUAAUGGACAGAAGGGCAGAGCAA [G5A U7C G8A U10C G28C A29U], 1.13; as for AGUUGAAGAAGGGAGCUCCAGCUAAGUGAAAUGGACAGAAGGGCAGAGCAA [C6A U7A C9A U10A A23U C24A], 0.207. Take AGUUAUAUAUGGGAGCUCCAGCACAGUGGCAUGGACAGAAGGGCAGAGCAA [G5A C6U U7A G8U C9A A29G A30C]: the “exon inclusion enrichment index” value was found to be 0.0104.

Regarding AGUUCGCGCCGGGAGCUCCAGCACAGUGAAUAGGACAGAAGGGCAGAGCAA [G5C C6G U7C U10C A31U U32A], the “exon inclusion enrichment index” value is 0.77. For AGUUGACGACGGGAGCUCCAGCACAGUGAAAUGGACAGCUGGGCAGAGCAA [C6A U7C C9A U10C A39C A40U] the value was 3.22.

AGUUAUAUAUGGGAGCUCCAGCACAGUGAAAUGGACAGAAGGCCAGAGCAA [G5A C6U U7A G8U C9A G43C]: the “exon inclusion enrichment index” value came out at 0.15. In the case of AGUUGCUGCUGGGAGCUCCAGCACAGUGAAAUGGACAGAAGGGCAGAUCAA [G48U], the “exon inclusion enrichment index” value was 0.288. In the case of AGUUUCUUUUGGGAGCUCCAGCACAGUGAAAUGGAUUGAAGGGCAGAGCAA [G5U G8U C9U C36U A37U], the “exon inclusion enrichment index” value turned out to be 0.081. As for AGUUACCACCCUGAGCUCCAGCACAGUGAAAUGGACAGAAGGGCAGAGCAA [G5A U7C G8A U10C G11C G12U], the figure is 0.353; as for AGUUCGCGCCGGGAGCUCCAGCACAGUGAAAUGGACCAAAGGGCAGAGCAA [G5C C6G U7C U10C A37C G38A], 2.71. As for AGUUACCACCGGGAGCUCCAGCACAGUGAAAUGCCCAGAAGGGCAGAGCAA [G5A U7C G8A U10C G34C A35C], the “exon inclusion enrichment index” value was 0.149. On to AGUUACCACCGGGAGCUCCAGCACAGUGAAAUGCUCAGAAGGGCAGAGCAA [G5A U7C G8A U10C G34C A35U], for which the “exon inclusion enrichment index” value turned out to be 0.506.

As for AGUUGCUGCUGGGAGCUCCAGCACAGUGAAAUGGUAAGAAGGGCAGAGCAA [A35U C36A], the “exon inclusion enrichment index” value came to 0.000875. As for AGUUAGGGAUGGGAGCUCCAGCACAGUGAAAUAGACAGAAGGGCAGAGCAA [G5A C6G U7G C9A G33A], the figure is 0.000879; as for AGUUACCACCGGGAGCUCCAGCACAGUGAAAUGGACAGAAGGGCCUAGCAA [G5A U7C G8A U10C A45C G46U], 1.12; as for AGUUGACGACGGGAGUGCCAGCACAGUGAAAUGGACAGAAGGGCAGAGCAA [C6A U7C C9A U10C C16U U17G], 2.04.

AGUUAGGGAUGGGACGUCCAGCACAGUGAAAUGGACAGAAGGGCAGAGCAA [G5A C6G U7G C9A G15C C16G]: the “exon inclusion enrichment index” value stood at 0.004. With AGUUUCUUUUGGGAGCUCCAGCACAGUGAAAUGGACAGAAUCGCAGAGCAA [G5U G8U C9U G41U G42C], the “exon inclusion enrichment index” value was 0.47. As for AGUUCACACAGGGAGCUCCAGCACAGUGAACUGGACAGAAGGGCAGAGCAA [G5C C6A U7C G8A U10A A31C], the “exon inclusion enrichment index” value was 0.155. Consider ACCUACCACCGGGAGCUCCAGCACAGUGAAAUGGACAGAAGGGCAGAGCAA [G2C U3C G5A U7C G8A U10C], for which the “exon inclusion enrichment index” value turned out to be 2.27. As to AGUUUCUUUUGGGUACUCCAGCACAGUGAAAUGGACAGAAGGGCAGAGCAA [G5U G8U C9U A14U G15A], the “exon inclusion enrichment index” value turned out to be 0.00362. As for AGUUUCUUUUGGAGGCUCCAGCACAGUGAAAUGGACAGAAGGGCAGAGCAA [G5U G8U C9U G13A A14G], the figure is 0.152; as for AGUUGACGACGGGAGCUCCAGCACAGUUCAAUGGACAGAAGGGCAGAGCAA [C6A U7C C9A U10C G28U A29C], 2.72; as for AGUUGACGACGGGAGCUCCAGCACAGUUUAAUGGACAGAAGGGCAGAGCAA [C6A U7C C9A U10C G28U A29U], 1.26. For AGUUCUUCUCGGGAGCUCCAGCACAGUGAAAUGGACAGAACUGCAGAGCAA [G5C C6U G8C C9U U10C G41C G42U], the “exon inclusion enrichment index” value came to 2.93. AGUUGAAGAAGGGAGCUCCAGCACAGUGAAAUGGACAGAACUGCAGAGCAA [C6A U7A C9A U10A G41C G42U]: the “exon inclusion enrichment index” value was 2.17. For the variant AGUUGACGACGGGAGCUCCAGCACAGUGAAAUGGACAGAAGGGCCGAGCAA [C6A U7C C9A U10C A45C], the “exon inclusion enrichment index” value is 3.19. For AGUUACCACCGGGAGCUCCAGCACAGUGAGGUGGACAGAAGGGCAGAGCAA [G5A U7C G8A U10C A30G A31G] the value was 0.823; for AGUUACCACCGGGAGCUCCAGCACAGUGAAAUGGACAGAAGCUCAGAGCAA [G5A U7C G8A U10C G42C G43U], 3.18; for AGUUCACACAGGGAGCUCCAGCACAGUGUUAUGGACAGAAGGGCAGAGCAA [G5C C6A U7C G8A U10A A29U A30U], 0.0185. For AGUUACCACCGGGAGCUCCAGCACAGUGAAAUGGACAGAAGACCAGAGCAA [G5A U7C G8A U10C G42A G43C] the value was 4.19. As for AGUUCGCGCCGGGAGCUAAAGCACAGUGAAAUGGACAGAAGGGCAGAGCAA [G5C C6G U7C U10C C18A C19A], the figure is 1.63; as for AGUUCACACAGGGAGCUCCAGCACAGUGAAAUGGACAGACGGGCAGAGCAA [G5C C6A U7C G8A U10A A40C], 0.355; as for AGUUUCUUUUGGGAGCUCCAGCACAGUGAAAUGGACACAAGGGCAGAGCAA [G5U G8U C9U G38C], 0.0741. Consider AGUUCGCGCCGGGAGCUCCAGCACAGUGAAACUGACAGAAGGGCAGAGCAA [G5C C6G U7C U10C U32C G33U], for which the “exon inclusion enrichment index” value worked out at 2.45.

In the case of AGUUCUUCUCGGACGCUCCAGCACAGUGAAAUGGACAGAAGGGCAGAGCAA [G5C C6U G8C C9U U10C G13A A14C], the “exon inclusion enrichment index” value came out at 2.59.

In the case of AGUUGAAGAAGGGAGCUCCAGCACAGUGAAAUGGACCUAAGGGCAGAGCAA [C6A U7A C9A U10A A37C G38U], the “exon inclusion enrichment index” value stood at 0.426. For AGUUAUAUAUGGGAGCUCCAGCACAGUGAAAUGGACAGAAGGGUUGAGCAA [G5A C6U U7A G8U C9A C44U A45U] the value was 0.0242; for AGUUUCUUUUGGGAGCUCCAGCAAUGUGAAAUGGACAGAAGGGCAGAGCAA [G5U G8U C9U C24A A25U], 0.149; for AGUUACCACCGGGAGCUCCAGCACAGUGAAAGUGACAGAAGGGCAGAGCAA [G5A U7C G8A U10C U32G G33U], 0.923.

As to AGUUCACACAGGGAGCUCUCGCACAGUGAAAUGGACAGAAGGGCAGAGCAA [G5C C6A U7C G8A U10A C19U A20C], the “exon inclusion enrichment index” value was found to be 0.0561.

With AGUUGCUGCUGGGAGCUCCAGCACAGUGAAAUGGACAGAACGGCAGAGCAA [G41C], the “exon inclusion enrichment index” value worked out at 0.866.

For AGUUCGCGCCGGGAAGUCCAGCACAGUGAAAUGGACAGAAGGGCAGAGCAA [G5C C6G U7C U10C G15A C16G], the “exon inclusion enrichment index” value came to 3.04.
